Laboratory results as given in publication PMC3906306 (mAbs, 2013).

Target: EGFR extracellular domain-Cλ fusion protein (Homo sapiens) (UniProt P00533)
Test: SPR

Row | Kd [nM] | Molecule
1 | 4 | hu225 VH:F100cY (antibody)
2 | 1.9 | hu225 VH:G33D (antibody)
3 | 3.9 | hu225 VH:T57G (antibody)
4 | 1.6 | hu225 VH:T97D (antibody)
5 | 3.1 | hu225 VH:V50L (antibody)
6 | 6.8 | hu225 VH:Y32R (antibody)
7 | 3 | hu225 VL:A25V (antibody)

Target: EGFR extracellular domain-Cλ fusion protein (Homo sapiens, UniProt P00533)
Test: SPR

Row | Kd [nM] | Molecule
8 | 1.8 | hu225 VL:G30Y (antibody, V domains shown) VH: EVQLVESGGGLVQPGGSLRLSCAASGFSLTNYGVHWVRQAPGKGLEWLGVIWSGGNTDYNTPFTSRLTINKDNSKNTVYLQMNSLRAEDTAVYYCARALTYYDYEFAYWGQGTLVTVSS VL: DILLTQSPGTLSLSPGERATLSCRASQSIYTNIHWYQQKPGQAPRLLIKYASESISGIPDRFSGSGSGTDFTLTISRLEPEDFAVYYCQQNNNWPTTFGQGTKLEIK
